Results on 2 molecules are retold here after article doi:10.1101/2024.06.05.597462 (bioRxiv, 2024).

Assay in all cases: fluorescence correlation spectroscopy
One data set deals with Arc NTD-linker-SNAP.
Data set [1] concerns the molecule itself.
Data set [2] concerns the molecule itself. The source holds these as a separate data set.

Like-named read-outs stand apart in the source and are kept apart here.

As for “Arc NTD-linker-SNAP (domain or fragment)”, the stoichiometry N with Arc NTD-linker-SNAP is 4.

B1: Arc-FL-C-EGFP (natural protein)
chain: MELDHMTTGGLHAYPAPRGGPAAKPNVILQIGKCRAEMLEHVRRTHRHLLTEVSKQVERELKGLHRSVGKLENNLDGYVPTGDSQRWKKSIKACLCRCQETIANLERWVKREMHVWREVFYRLERWADRLESMGGKYPVGSEPARHTVSVGVGGPEPYCQEADGYDYTVSPYAITPPPAAGELPEQESVGAQQYQSWVPGEDGQPSPGVDTQIFEDPREFLSHLEEYLRQVGGSEEYWLSQIQNHMNGPAKKWWEFKQGSVKNWVEFKKEFLQYSEGTLSREAIQRELDLPQKQGEPLDQFLWRKRDLYQTLYVDAEEEEIIQYVVGTLQPKFKRFLRHPLPKTLEQLIQRGMEVQDGLEQAAEPSVTPLPTEDETEALTPALTSESVASDRTQPE
Consider B1, for which the “stoichiometry N” value in data set [1] came out at 4.3; in data set [2] it was 627.

One may read the stoichiometry N as the number of molecules, sites or subunits per partner or assembly.
